Molecular target: HA ectodomain of B/Florida/4/2006 (influenza B virus B/Florida/4/2006 (Yamagata lineage))
Test: negative stain EM reconstruction

Substance: HA ectodomain of B/Florida/4/2006 (domain or fragment)
- stoichiometry N: 3

Reference: PMC3538841
